Reference: the DeepSol protein solubility set

Experiment: soluble on expression in E. coli; label from the status in PepcDB or PDB records

Sequence | soluble on expression in E. coli
MKPAAREARLPPRSPGLRWALPLLLLLLRLGQILCAGGTPSPIPDPSVATVATGENGITQISSTAESFHKQNGTGTPQVETNTSEDGESSGANDSLRTPEQGSNGTDGASQKTPSSTGPSPVFDIKAVSISPTNVILTWKSNDTAASEYKYVVKHKMENEKTITVVHQPWCNITGLRPATSYVFSITPGIGNETWGDPRVIKVITEPIPVSDLRVALTGVRKAALSWSNGNGTASCRVLLESIGSHEELTQDSRLQVNISGLKPGVQYNINPYLLQSNKTKGDPLGTEGGLDASNTERSRAGSPTAPVHDESLVGPVDPSSGQQSRDTEVLLVGLEPGTRYNATVYSQAANGTEGQPQAIEFRTNAIQVFDVTAVNISATSLTLIWKVSDNESSSNYTYKIHVAGETDSSNLNVSEPRAVIPGLRSSTFYNITVCPVLGDIEGTPGFLQVHTPPVPVSDFRVTVVSTTEIGLAWSSHDAESFQMHITQEGAGNSRVEITTNQSIIIGGLFPGTKYCFEIVPKGPNGTEGASRTVCNRTGKQI | soluble
MKPADIDKLISEIRTAIYAEQSHRKIIEIDPDIYRKVRAALSDLQAEASEYFQKQDIENYLTMNNRFQTLKRDFRSLFQRRFEKIVAKAIYDISGETLSLLTDEEKEFIEKIHNIITEEFESFIPKREEKNEARAEAQPAPADESPTAIADQKPQEEPQVVQDQHQPPAEIPSENIEIKKEDGRYVLVMITEDLPPIAQLDRNYSLHSNDLVYLPQDLASILAKRKVALVLDQ | soluble
MKPKKRQMEYLTRGLIAVQTEQGVFVSWRFLGTDHETTAFHLYRDGKRITRDPIAESTNFLDQNGTADSVYQVAAVNKGREEKLSKKARVWQENVLEVPLAKPEGGVTPDGKPYTYSANDASVGDIDGDGEYEMILKWDPSNSKDNAHDGYTGEVLIDAYKLDGTFLWRINLGRNIRAGAHYTQFMVYDLDGDGKAEIAMKTADGTTDGKGHIIGDEQADFRNEQGRILSGPEYLTVFKGETGEALTTVEYEPPRGKLEDWGDGYGNRMDRFLAGTAYLDGERPSLVMARGYYTRTVLVAYDFRNGRLKKRWVFDSNQPGHEAYAGQGNHSLSVADVDGDGKDEIIYGAMAVDHDGTGLYSTGLGHGDAMHVGDLDPSRKGLEVFQVHEDATKPYGLSLRDAGTGEILWGVHAGTDVGRGMAAHIDPSYKGSLVWGIDPPGNDGMSYGLFTSKGEKISDKAPSSANFAIWWDGDLVRELLDHDWDGTIGRPKIEKWDAENGCLKTIFQPAGVLSNNGTKGNPVLQANLFGDWREEVIWRTEDSSALRIYTTTHLTRHCFYTLMHDPVYRLGIAWQNTAYNQPPHTSFYLGTGMKKPPKPALYIAGSKAEAPLLEHHHHHH | soluble
MKPKVVRYLDEGEFPLAEEEALRLYRAMRRARFFDEKALTLQRQGRLGVYAPFMGQEAAQVGVALALEERDWVVPSYRESAMLLAKGLPIHTLILYWRAHPAGWRFPEGVRAVNPYIPIATQIPQAVGLALAGRYRGEDWVVATSIGDGGTSEGDFHEGLNFAAVFGAPVVFLVQNNGYAISVPKSRQMKVDYVARRAEGYGMPGVVVDGNDAFAVYLEAKKAVERARKGEGPTLLEALTYRLAPHTTSDDPSRYRSKEEEEAWRAKDPILRLRKALEGRGLWGEEAEKALLLELEEEFQRELALADEAPEPRPEEIVEHVYAEMGPDQRRAWEALRRGLHVEEVE | soluble
MKPLTDTDYIHALIAEGEHQQQDFKFEISDTRKIAKTLSAFANTDGGRLLIGVKDNGKIAGVRSDEEKYMIEAAAQLYCWPEVDYSMQTFHVEGRSVLVVQIDESEHKPVFAKDENGKSLAYIRIKDENILATPVHLRVWQQSGSPAGELIRYTEREQLLLDLLEENTSLSLNRYCRQAGISRRAAEHLLAKFIRFDIVEPIFENHKFYFRLKLEHHHHHH | soluble
MKPSQWTLRWVTLCGCGMLAASAAAVELPGTVQPSQLDERFKPRSEPQAKPEAPLVVPKQVAPQGSEQIRFKLREIRIEGNTRYDKAVLESYYQHMLGEQVSLAELVDLANRLTAKYRQDGFLLTQVVVPEQSIEGGKVRLQVIEGYLEHVQIKGTVDGPRVRVEELLAPLTEKRPLDADTLERGLLLVGDLPGVNVQSVLSPGQALGSSNLDVALQQQRYEGFVSLDNRGSHYTDPTTLAFGATEFSRLGFYEQIDVLGAISPFSDATRYIQLRGTLPLGGMFAGDTLQIMGSYSKVNPDIPDSVFPFDSVSKSTEGSISYNHPFIRSRSQNLSGGLALQWKDTETRLRDFASDASNPGRDHVRVFQQRLTYDWVDRWMGINLAEVRNNIGLDMWGATKKDDERRSREVADGRFVYLNGNIGRLQGLGGPWSVYGELQWQYSFDPLLPSERFGVGGSGIGRGFAPGNITGDRGFALKLEPRYGQAVGYSWLRSYQAYAFYDWGKTYNLDVDDDEQQKLGSIGAGVRFNLTDQLSFNPEIARQVIGEPADQRDGKRETRVLFNVVARF | not soluble
MKPVKAKCEVCEHMFRVQMLTARLSNRVDKHYFICPSCKTEFISYYSNREMRQLQKEISNLYKGFRTCYTKEQAKVIQAKIDKKDLEFKWLRDILRTEIENNLPN | not soluble
MKPVTLYDVAEYAGVSYQTVSRVVNQASHVSAKTREKVEAAMAELNYIPNRVAQQLAGKQSLLIGVATSSLALHAPSQIVAAIKSRADQLGASVVVSMVERSGVEACKAAVHNLLAQRVSGLIINYPLDDQDAIAVEAACTNVPALFLDVSDQTPINSIIFSHEDGTRLGVEHLVALGHQQIALLAGPLSSVSARLRLAGWHKYLTRNQIQPIAEREGDWSAMSGFQQTMQMLNEGIVPTAMLVANDQMALGAMRAITESGLRVGADISVVGYDDTEDSSCYIPPLTTIKQDFRLLGQTSVDRLLQLSQGQAVKGNQLLPVSLVKRKTTLAPNTQTASPRALADSLMQLARQVSRLESGQ | soluble
MKPWLITPERLTSEQIGLLDHFFDRGLERLHLRLPSAGEEDYSQVIEAVAACYRRRIVVHDHPRLVGRYGLCGLHLPERVWKGMTDRPQLPDGCTVSASCHAIEDIESFPFRLDYCFLSPVFDSLCKVGYAGRFSPDS | not soluble
MKPYDLSEAVAVVTGGSSGIGLATVELLLEAGAAVAFCARDGERLRAAESALRQRFPGARLFASVCDVLDALQVRAFAEACERTLGCASILVNNAGQGRVSTFAETTDEAWSEELQLKFFSVIHPVRAFLPQLESRADAAIVCVNSLLASQPEPHMVATSAARAGVKNLVRSMAFEFAPKGVRVNGILIGLVESGQWRRRFEAREERELDWAQWTAQLARNKQIPLGRLGKPIEAARAILFLASPLSAYTTGSHIDVSGGLSRHA | soluble
MKQADQTYRGQFKDDLYDGAGQLELADGSRYQGLFAKGKPNGAGVRSDASGNQFSGHFVNGQLQGAGTYDSVDGEQYIGEFKDNRLEGRGRYENADGDVWIGEFKDGSLIGEGELLGSDGSHYKGEFADWRLSGQGSLQLADGSKYIGGFLNDAYHGHGRLILPSGKVESGTWANGVRVRDQNGKLLPDPLDLALLNQGRLLDEALVRVPRSAPPIQLYSLVVAGDGQQSVFLREADYVSRMLKVRFGARGQVTLVNHRDHMATRPMATRENLSRAAATLAERSGPEDLVFIYLTSHGSQDHQLVLDQPRLQLADLAADELATALAPLKDRDKVIVISACYSGGYIAPLKDERTLIMTAARADRVSFGCSEEADFTYFGDALFAEALNQTDDLKQAFELARASVAEREQREGFEASEPQLWAPPAVLEHWHQLRQQQAEEALRNATQANVSKQAKMPGTHLEHHHHHH | soluble
MKQDGEEGTEEDTEEKCTICLSILEEGEDVRRLPCMHLFHQVCVDQWLITNKKCPICRVDIEAQLPSES | soluble
MKQKEYMEYRPLGEEIERIRKGKNIPLRVFDENGVSSRSYQRFVQGNSELRISDLAIIVEILSISPMEMTEKLTPMSKTVLAKEQFNQAIFSKNFQESSRIVADYRAYYEKSSFALGKQEVMYSMLALEYLFNPQTVVTKEEIIALENQILERLINADVYTIFNLKFLALQKNVGLQPFPTSLLFRVLQSVNEREIIDIRSLEIIEQVIIDFLFAAIVSQNVPHILHVLSMFKEYEVGENNWRMILWKKIAEKIEMILTNEEIFADWSIFKEQILLSITLFLPKAKQEFFAGQLEKIEDSLKEIKEN | not soluble
MKQLYWYTCGEGDCDLVLLHGWGLNSGVWHCIIDRLAPHFRLHLVDLPGYGRSQDYGAMSLADMAERVAQQAPKQALWLGWSMGGLVASQIALSQPECVRGLITVSSSPCFTARDEWPGIKPEVLAGFQHQLSDDFHRTVERFLALQTLGTESSRQDARLLKSVVLQHQMPDVEVLTGGLAILRTADLRTALAGFTLPFMRVYGHLDSLVPRKVASLLDSAWPQTQSVVMQGAAHAPFISHPNDFAKLILNFAEENKK | not soluble
MKQVAVISGKGGTGKTTFSATIHALEGGVVADCDVDAPNLHILLKPQILKAEDFIASKKARIMPEKCSSCGLCYDLCRFGAVVAEDGYYVDEKKCEGCAFCFNVCPERAIEMENVKTGDLYVSKTEWGYFVHARLKPGEENTGRLVTEVKNRAKEIAEESNAEFLIVDSAPGVGCPVMASLTGVDAAIIVTEPTVSGLSDMLRILELCEHFRIRPFVVVNKFDLNVNIASEIESYCSENGVEFAGRVPFDKAIPEQIANLNFPFSGKAADKMVEIWKKLREVLLEHHHHHH | soluble
MKRDARDAPKSITLGFEADCVTLPIDAILPLRALGKSAKSSRKYRQIAASIAQIGIVEPPVVVRNPDRSATWLLLDGHMRIEALKDAGGSEVECLVSTDDEAFTYNRQISRLAPIQEHKMIRKAIERGVPEEKIALALDLNMSSIRRKARLLDGICEEAVAILKDKPCTNAVFDALRKMRTMRQIEAAELLVNANNYSVAYVNAILAGTPQAQLVESSKPKKVKGITPDAMARMEQELARLQEGIASIQDTYGEDHLHLTVIKGYVGKLLGNARVVRYLAQNHPEFLGEFQTITEITPAEADAAE | not soluble
MKRDKEVSINKKDPFSVLIMGVDERDGDKGRADTLIYMTVNPKTNTTDMVSIPRDTYTKIIGKGTMDKINHSYAFGGTQMTVDTVENFLDVPVDYFVKVNMESFRDVVDTLGGITVNSTFAFSYDGYSFGKGEITLNGKEALAYTRMRKEDPRGDFGRQDRQRQVIQGIINKGANISSITKFGDMFKVVENNVKTNLTFDNMWDIQSDYKGARKHIKQHELKGTGTKINGIYYYQADESALSDITKELKESLEKLEHHHHHH | soluble
MKRIITLTVVNRSGVLNRITGLFTKRHYNIESITVGHTETAGVSRITFVVHVEGENDVEQLTKQLNKQIDVLKVTDITNQSIVQRELALIKVVSAPSTRTEINGIIEPFRASVVDVSRDSIVVQVTGESNKIEALIELLKPYGIKEIARTGTTAFARGTSKRRHPIKQYLLYKTLEHHHHHH | soluble
MKRILCITGTRADFGKLKPLLAYIENHPDLELHLIVTGMHMMKTYGRTYKEVTRENYQHTYLFSNQIQGEPMGAVLGNTITFISRLSDEIEPDMVMIHGDRLEALAGAAVGALSSRLVCHIEGGELSGTVDDSIRHSISKLSHIHLVANEQAVTRLVQMGEKRKHIHIIGSPDLDVMASSTLPSLEEVKEYYGLPYENYGISMFHPVTTEAHLMPQYAAQYFKALELSGQNIISIYPNNDTGTESILQELLKYQSDKFIAFPSIRFEYFLVLLKHAKFMVGNSSAGIREAPLYGVPSIDVGTRQSNRHMGKSIIHTDYETKNIFDAIQQACSLGKFEADDTFNGGDTRTSTERFAEVINNPETWNVSAQKRFIDLNL | not soluble
MKRLIICNGNKLTVCTQAISSGGIVEKYTPIFSLTKESDNELTLELSGVARGYYIIPSELTSSQARAAHLITLLTRAEESQTTDMHKILNSFVSGKITSGSMFNFENDGSFKREPEEAYNLINKI | not soluble
